Measured values taken from the DeepSol protein solubility set.

Experiment: soluble on expression in E. coli; label from the status in PepcDB or PDB records

Soluble on expression in E. coli, not soluble:
MGSDKIHHHHHHLADVIYQAQPPLEFIPPAFNPLFLRFVHLLLPSWINWQTPITQIEADNVEVLVDLYRQFQEGKIRFMLAFRHPKTDDPFCLAYLLSQLVPKIARSQGTTLQLPIHAHFIYDRGIPLWAGSYVGWIASRLGGTPIQRGKADWTGLRSARDLFANGKFPMAAAPEGATNGLSENISPLEPGIAQLGFWCAEDLHKAERPEQVLIVPVGIKYSYVDAPWDAIANLLSELEAASGLPVNSAENASIESLYPRLLALAEHLLLLMEEFYTRFYHQKLPDSKIVNGQIPDRNEALAVRLQALLNAALLISEQYFNLQSKGSLSDRCRRVEQAGWNYIFREEFKDVKGVSAVERALGDRVAEEANARMWHMRLVESFVAVSGNYIRENPTVERFAETTLILWQMIAKIKGDKGVQRPQLGKQKVKITVGEPISISEHYPAYKENRLGARQAVADVTNDLQHALEGLI
MGSDKIHHHHHHLAVMPFSPDQIIRPEILALSAYHVPPACGMIKLDAMENPYPLPPELRDEIAKLAGETPVNRYPDPDAAALKAALREALSIPDGMDIMLGNGSDEIIQIIALACGKPGAVLMSVEPAFVMFRMIATFASMNYVGVPLHPDFSLDAEAMLAAIARYQPAVIFIAYPNNPTGNLFDAVEISRIIDAAPGVVVVDEAYHAFADASFMDKLAHHPNLLLMRTLSKLGMAGLRLGLLAGKPEWLRQLEKLRLPYNVGIVTQRIAEKLLQHRDVLLQQAAAIKLERSSMSRRLAELEGIEVFPTDANFILFRLNQDHKATQVFQELKQRGILVKNLDGAHPLLKNCLRVTVGMPDENAQFLEVLQTLLVKVEAKA
MGSDKIHHHHHHLDPFASPQNLDKELRSLLAQASSNLCDWFAESASQGPMPYSFELPEVYPAKEGVSNDVLLSELQLLMDGSYRPSHPGSLAHLDPPPLSASIAGELICAGLNNNLLADELSPSLSSLERNLCKWFCHKLGLGDLSGGVAASGGSLSNLMALVMARNNSGLETDPKAVFFASHDCHVSFSKAFRIMGLKQESLQKVSTDENGALNISSLRTSLNKIKSQGKKCFAVVATAGTTVRGAIDPLSEIAKFCKKENVWFHVDGSIGGIYGLSEMTSEIVQGLGFADSLTINPQKLLGIPKTSSLLLVANKNHLSSTFSTGLPYVEPISGNDFHGGELGIQGTRSAETLKLWIGLRQLGEEGIEKILLGSIKRRCYLESIIDRSKFKIISGPLHLLAFTPINYSSSQSSDWSLKTRNSLLANKFMLSRPMYGHRYYLKAVMGNPNTKFDDLKMLANLINHSIS
MGSDKIHHHHHHLEAGMNYGVWNNKGGVGKSFLSFTLALEHAHRHPERKILLADMCPQANLSEIILGGNGKGNANLEARLAQDKRKTIGGYFDERIASPHQVTGNETSYLIAASDYNQELPDNVYLLCGDPSLELQAQVINQIGSQTLPADAWKNVHMWLKDLINACARQLGREGTSVFIDCNPSFSAYTELAIVASDRLILPCSCDGSSARAVHNVENLVFDGSAYYGDKSFSKMCERFGMALPVIHSVVLNRSTLYNKDASKAFSAMFDEIKRTANDFYKRSPGSFVAGGPAFMVMPDNHSVAIVSSHLGKPLYAIKPGKYQVYEVNPQINPEPLNRYKEAIEGMEAVLL
MGSDKIHHHHHHLGFGAPKISNEEERLRALAEYRILGTQPEQCYDDITKIASLTCGTPISLMSLVDTDTQWFKSMCGFETKETSRDVSFCAHAIASSEPLIVEDALLDERFKSNPLVVEEPKIRLYAGFPLQTPNDQRIGTLCVIDRKPGHLSDHQHQIMEALSRQVVTLLELRKRSIRLLDALTHMHNTEGILTTCSYCKEVRDSDGEWQHLEKYLSKIADIRFSHGICDLCMEKHFPDVLEVWSDDKLDLNSKKNKPECKKSN
MGSDKIHHHHHHLKQLLLDIQPPAAPSLDNFVTGRNAEALFQLRRTVLEHDDARFIYLWGETGCGKTHLIQACNALASASGLDMICVDDVHLLSNDDQVALFDLYNQLRESGGRLIVSGLAAPSQMGLRDDLATRLAWGLSYQLHPLSDEEKTQALKNHAEARGMKLPDEVLDYCLRHLRRDMPSLIATIDALDEWSLISKRAVTLPLLKQLLQTST
MGSDKIHHHHHHLSIIEQYLSQAEALFQSKNYSSARMYARKVIKRDDKHLGALSLLGQIHLQQQQYNEAENYFATAAAVDPNAMPVLTGLLAIAEVKQDFFLAKTYLLQLINTQGNVETYQYKLGLVATKVGDMALAEQCFEWCVANDFSEPAVQLNLGHIYKAKGDTEKAANFYHQYNQLSPKQVGVGYWSLADLKQYRFSTDDLTLLQVFATDESLSKQNQALVYFALCKAYEQTQQIDKASESMLLANKIMTLHRPFKQAQFANIVLSLLGHTPSPHIDSLPTASQTPIFIVGMPRSGTTLVEQILACHTDVGATDELPFMERFALQMDMSGGYNARLSQLSASHIDQFRQRYLAEVNHYFSDAPTYVIDKNPNNFLHIGLIKTLFPQAKIINVVRNTVDNGLSVFKQFFSFGHDYSYSFAGISSYWQHYLDIMQHWDRLYPNEILHVCFEQLVREPESQIQRILDYCELTTQAQCFTFYESERAVLTPSASQVRQPMNLKAIGQADKYQAFIPEQIAELDAIAKKAALQFFG
MGSDKIHHHHHHLSPEDYYGSNDFWNQKSQVEMFMTGIHADLRDKYQMPVTLGEFRSEILISDVTSMGEGVYGPPMTNNLLTKDNTGIDDWYEVYPNIMHINLFIRNVDKEIDYLTGTEKSFYLGQAYGLRAYYYFYLYRTFGGVPLETEPKVTEGSIDITQLYKARSTPEETLEFIKEDINKSEAFFNESDKKMSNQYEWSYHATELLKAKIYMWSAKVTTGLPDDDIAGDHIATLTAVDPNNSDLLTAKKALLNLVNQQFELLPNFADLWTPEGKKNKEIIFALCFNKNELTNWGANWFYNVALFTNATDLDGNKYGPDPLKLLTAGPLRYEYKVPFIEIYDKEDTRLDATFFQYMFEGKIRGACWKKLMGHTDGGTHYYDSDVPVYRYADVLLMLAECENGLGAPDKCAAYINEVRKRAYGDKFEQHKYIAGDYADNEWAILQERDKEFVGEGSRWFDLLRLRDSNGKPFVFSVKAHYGSSLPILTEDKAYMMLWPVNVEVLNGDPEIKQTPGYE
MGSDKIHHHHHHLSSPMRLSFLAAAFAAPLVVSASGAGAAEPTRYPLTLQTCGQTITFDRAPSRVVSIGQSSTEILYLLGLADKVVGTALWVGPVIAGYEAVDAKVPRLADNDPSFESVVGKKPDLVTNQYQWQVGPKGVVATNAQFAELKIPVYTSPADCVGKDNSEGGDGLRTSRFTTDLIYQEIEDLARIFDVSERGEVLINDLKAREAAAKKKIASLRSPVSAVFWFSSADLDIDPYVAGSDGAPGYILSVLGITNVIKSEEEWPTVGWETIAKANPTIIVAGEMTRRRFPVDDIAVKKTFLANDPVTRLMPAVQEGRIVPLDAQAMNPTIRTIEGIEVVADAVIKAGLAQ
MGSDKIHHHHHHLTDAEIDASFNPYQAGPTTSPGITPGMKIDKSNAQKFRDIIDPATYALIEQGKLEFPVEETHSIALHPNYIAATKKHSSQVKLGSATGTIEGYVAGRPFPGKPDKSDPRAGEKLAFNYKYAQIVGDSGRIYPFIWQYKDARSGKVERQLEFDFNFLSFKHRTTQLPTADIEPNPSKFYRGIYLKVLSPQDLKNTQLLIQRFDDDTKLDDSYLYLGFQRRVRRLATGQTTDSFLGSDLMIEDFEGYNGRVPDMDWKYVETKVMLLPVYRHSEWKKTEPRDQMGYGQVQFDGQAQCFQNIPWSLRVVHVIEGVPVESRNPIGKRILYMDAQTSIFPIINMYDRKGALWKRWAIGFSDSAYHAPANQAAGIAIYTSASMLDVQAQHCTTLQLRMISDPALSPPSIFSVQNLRGGD
MGSDKIHHHHHHMADNTDNLNSFRALALQVTCHAVNQATDRHEARSLMQNSINRLAQQIAASIAFIGFDCRLIVLPEYFLTGFPMGDSLAGWAEKACIEMAGAEYEALGKIAQKHKIFLAGNAYEVDPNFPGLYFQTCFILDPSGSIVLRYRRLNSLFAPTPHDVWDKYLDCYGLEGVFPVAKTAIGNLAALASEEILYPEVARCLAMRGAEIFVHSTSEVYNKNLTPKDAAKITRAVENMAYVVSANTAGIANIAIPIASADGGSKIIDHRGIVLAETGAGESMAAFAEIDLGALRRDRRRPGLHNLLARQRFELYAESYHQSHFYPANTMLEGEIDRKHFLQTQQATIDRLAQLGII
